Substrate in the data set: C[C@]12CC[C@@H]3c4ccc(O)cc4CC[C@H]3[C@@H]1CC[C@@H]2O[C@@H]1O[C@H](C(=O)O)[C@@H](O)[C@H](O)[C@H]1O
Briefly: TP_TRANSPORTER: uptake in bile canalicular membrane vesicles from SD rat. In kind it is functional, cell membranes, Sprague-Dawley, Bile canalicular membrane vesicle.

B1: ATP-binding cassette sub-family C member 2 (Rattus norvegicus) (protein)
chain: MDKFCNSTFWDLSLLESPEADLPLCFEQTVLVWIPLGFLWLLAPWQLYSVYRSRTKRSSITKFYLAKQVFVVFLLILAAIDLSLALTEDTGQATVPPVRYTNPILYLCTWLLVLAVQHSRQWCVRKNSWFLSLFWILSVLCGVFQFQTLIRALLKDSKSNMAYSYLFFVSYGFQIVLLILTAFSGPSDSTQTPSVTASFLSSITFSWYDRTVLKGYKHPLTLEDVWDIDEGFKTRSVTSKFEAAMTKDLQKARQAFQRRLQKSQRKPEATLHGLNKKQSQSQDVLVLEEAKKKSEKTTKDYPKSWLIKSLFKTFHVVILKSFILKLIHDLLVFLNPQLLKLLIGFVKSSNSYVWFGYICAILMFAVTLIQSFCLQSYFQHCFVLGMCVRTTVMSSIYKKALTLSNLARKQYTIGETVNLMSVDSQKLMDATNYMQLVWSSVIQITLSIFFLWRELGPSILAGVGVMVLLIPVNGVLATKIRNIQVQNMKNKDKRLKIMNEILSGIKILKYFAWEPSFQEQVQGIRKKELKNLLRFGQLQSLLIFILQITPILVSVVTFSVYVLVDSANVLNAEKAFTSITLFNILRFPLSMLPMVTSSILQASVSVDRLERYLGGDDLDTSAIRRVSNFDKAVKFSEASFTWDPDLEATIQDVNLDIKPGQLVAVVGTVGSGKSSLVSAMLGEMENVHGHITIQGSTAYVPQQSWIQNGTIKDNILFGSEYNEKKYQQVLKACALLPDLEILPGGDMAEIGEKGINLSGGQKQRVSLARAAYQDADIYILDDPLSAVDAHVGKHIFNKVVGPNGLLAGKTRIFVTHGIHFLPQVDEIVVLGKGTILEKGSYRDLLDKKGVFARNWKTFMKHSGPEGEATVNNDSEAEDDDDGLIPTMEEIPEDAASLAMRRENSLRRTLSRSSRSSSRRGKSLKNSLKIKNVNVLKEKEKEVEGQKLIKKEFVETGKVKFSIYLKYLQAVGWWSILFIILFYGLNNVAFIGSNLWLSAWTSDSDNLNGTNNSSSHRDMRIGVFGALGLAQGICLLISTLWSIYACRNASKALHGQLLTNILRAPMRFFDTTPTGRIVNRFSGDISTVDDLLPQTLRSWMMCFFGIAGTLVMICMATPVFAIIIIPLSILYISVQVFYVATSRQLRRLDSVTKSPIYSHFSETVTGLPIIRAFEHQQRFLAWNEKQIDINQKCVFSWITSNRWLAIRLELVGNLVVFCSALLLVIYRKTLTGDVVGFVLSNALNITQTLNWLVRMTSEAETNIVAVERISEYINVENEAPWVTDKRPPADWPRHGEIQFNNYQVRYRPELDLVLKGITCNIKSGEKVGVVGRTGAGKSSLTNCLFRILESAGGQIIIDGIDVASIGLHDLRERLTIIPQDPILFSGSLRMNLDPFNKYSDEEVWRALELAHLRSFVSGLQLGLLSEVTEGGDNLSIGQRQLLCLGRAVLRKSKILVLDEATAAVDLETDSLIQTTIRKEFSQCTVITIAHRLHTIMDSDKIMVLDNGKIVEYGSPEELLSNRGSFYLMAKEAGIENVNHTEL
In the case of B1, the Km was 75 µM.

By Km is commonly meant the concentration of substrate that gives half-maximal velocity.
